Results published in US20120064176A1, “COMPOSITION FOR PREVENTING AND TREATING FATTY LIVER” (National Chung Hsing University, priority 2008, published 2012).

System: C57BL/6JNarl mice
Test: Hepatic triglycerides after 7 weeks of lactoferrin, chromium or lactoferrin+chromium in high-fat-diet mice
Format: in vivo
Conditions: 10 mice in each group
Experimental: Male C57BL/6JNarl mice (n=70) fed with high fat diet (high-fat Rodent TestDiet, PMI International Inc., MO, USA; 67% of calories provided by fat), age 8 weeks, are randomly divided into the control group, the low-dose lactoferrin group (NZMP lactoferrin, New Zealand, 40 mg/kg BW/day), the high-dose lactoferrin group (80 mg/kg BW/day), the low-dose chromium group (CrCl3·6H2O, Sigma, Cr^+3 40 μg/kg BW/day), the high dose chromium group (Cr^+3 80 μg/kg BW/day), the low-dose lactoferrin+chromium group (lactoferrin 40 mg/kg BW/day+Cr^+3 40 μg/kg BW/day), and the high-dose lactoferrin+chromium group (lactoferrin 80 mg/kg BW/day+Cr^+3 80 μg/kg BW/day) (10 mice in each group). After supplementation for 7 weeks, the C57BL/6JNarl mice are sacrificed and their livers are harvested. Then, the level of hepatic triglycerides is analyzed. […] However, no significant difference between the other groups is found.

B1: Lactoferrin: NZMP lactoferrin, New Zealand; a glycoprotein that is capable of combining with metal ions (protein, UniProt P24627 20-708, looked up)
Lactotransferrin: APRKNVRWCTISQPEWFKCRRWQWRMKKLGAPSITCVRRAFALECIRAIAEKKADAVTLDGGMVFEAGRDPYKLRPVAAEIYGTKESPQTHYYAVAVVKKGSNFQLDQLQGRKSCHTGLGRSAGWIIPMGILRPYLSWTESLEPLQGAVAKFFSASCVPCIDRQAYPNLCQLCKGEGENQCACSSREPYFGYSGAFKCLQDGAGDVAFVKETTVFENLPEKADRDQYELLCLNNSRAPVDAFKECHLAQVPSHAVVARSVDGKEDLIWKLLSKAQEKFGKNKSRSFQLFGSPPGQRDLLFKDSALGFLRIPSKVDSALYLGSRYLTTLKNLRETAEEVKARYTRVVWCAVGPEEQKKCQQWSQQSGQNVTCATASTTDDCIVLVLKGEADALNLDGGYIYTAGKCGLVPVLAENRKSSKHSSLDCVLRPTEGYLAVAVVKKANEGLTWNSLKDKKSCHTAVDRTAGWNIPMGLIVNQTGSCAFDEFFSQSCAPGADPKSRLCALCAGDDQGLDKCVPNSKEKYYGYTGAFRCLAEDVGDVAFVKNDTVWENTNGESTADWAKNLNREDFRLLCLDGTRKPVTEAQSCHLAVAPNHAVVSRSDRAAHVKQVLLHQQALFGKNGKNCPDKFCLFKSETKNLLFNDNTECLAKLGGRPTYEEYLGTEYVTAIANLKKCSTSPLLEACAFLTR
Hepatic triglycerides, High-dose (High-dose: lactoferrin 80 mg/kg BW/day and/or Cr+3 80 μg/kg BW/day): 18.1 ± 7.2 μ mol/g liver
Hepatic triglycerides, Low-dose (Low-dose: lactoferrin 40 mg/kg BW/day and/or Cr+3 40 μg/kg BW/day): 18.4 ± 6.0 μ mol/g liver
